Laboratory results as given in US9168297B2, “Regulation of skin pigmentation by neuregulin-1 (NRG-1)” (The United States of America, as Represented by the …, priority 2010, dated 2015).

What was measured:
Format in all cases: cell-based, human
ERBB4 = ERBB4 protein level by western blotting in melanocytes; details: HEM-LP and HEM-DP, NRG-1 50 ng/ml, 5 days
Description: FIGS. 7A and 7B are digital images illustrating expression of ERBBs after NRG-1 treatment. FIG. 7A) HEM-LP and HEM-DP melanocytes were treated with or without NRG-1 (50 ng/ml) for 5 days, and levels of ERBB2, ERBB3 or ERBB4 were detected by western blotting. Results shown are representative of three studies. FIG. 7B) Expression of ERBB2 was examined in HEM-LP and in HEM-DP melanocytes after 1 or 9 days or treatment with NRG-1 compared to vehicle-treated controls; the results are representative of two independent studies.
Fibroblast cultures in 100-mm dishes were solubilized in appropriate volumes of M-PER mammalian protein extraction reagent (Pierce Biotechnology, Rockford, Ill.) containing a Protease Inhibitor mixture (Roche, Mannheim, Germany) and phosphatase inhibitors. The protein concentration of each extract was measured using a BCA protein assay kit (Pierce, Rockford, Ill.). Cell extracts (20 μg) were separated on 8-16% gradient SDS polyacrylamide gels (Invitrogen, Carlsbad, Calif.), after which proteins were transferred to PVDF membranes (Invitrogen, Carlsbad, Calif.). […] Antigen-antibody complexes were detected using an ECL-plus Western blotting detection system (GE Healthcare). […]

phospho-Akt (Ser473) = test: Phosphorylated-Akt levels by western blotting in melanocytes; details: NRG-1 50 ng/ml
Description: (§1) FIGS. 5A-5D illustrate the effect of NRG-1 on the proliferation of human melanocytes in culture. FIG. 5A) Lightly-pigmented (HEM-LP) and FIG. 5B) darkly-pigmented (HEM-DP) melanocytes were treated with or without NRG-1 (50 ng/ml) for 1, 3, 5 or 9 days in 10 cm culture dishes and total cell numbers were counted. Results are the averages of three studies±SD. FIG. 5C) Phosphorylated-Akt levels were detected by western blotting for HEM-LP and HEM-DP melanocytes treated with NRG-1 (50 ng/ml) for 5 days compared to vehicle treated controls; GAPDH is used as a loading control. FIG. 5D) HEM-DP melanocytes were treated with NRG-1 (50 ng/ml) for 1, 3 or 5 days and p-Akt levels were detected by western blotting compared to vehicle treated controls; GAPDH is used as a loading control. Results shown are representative of three studies; statistically significant differences are indicated.
Fibroblast cultures in 100-mm dishes were solubilized in appropriate volumes of M-PER mammalian protein extraction reagent (Pierce Biotechnology, Rockford, Ill.) containing a Protease Inhibitor mixture (Roche, Mannheim, Germany) and phosphatase inhibitors. The protein concentration of each extract was measured using a BCA protein assay kit (Pierce, Rockford, Ill.). Cell extracts (20 μg) were separated on 8-16% gradient SDS polyacrylamide gels (Invitrogen, Carlsbad, Calif.), after which proteins were transferred to PVDF membranes (Invitrogen, Carlsbad, Calif.). Membranes were blocked for 1 hour in PBS or Tris buffered saline (TBS) containing 0.1% Tween 20 and 5% (w/v) nonfat dry milk powder and were incubated overnight at 4° C. with the primary antibody in PBS containing 0.1% Tween 20 and 2.5% (w/v) nonfat dry milk powder or in 0.1% Tween-TBS with 5% BSA, depending on the antibody. The following primary antibodies were used: anti-human DKK-1 (0.2 μg/ml), anti-human DKK-3 (0.1 μg/ml), anti-human bFGF (0.1 μg/ml), anti-human SCF (0.1 μg/ml), anti-human mouse monoclonal ERBB3 (1 μg/ml) and anti-human mouse monoclonal ERBB4 (2 μg/ml) antibodies from R&D Systems, neuregulin-1α/β1/2 (C-20) (1:500) and GAPDH (FL-335) (1:10,000) antibodies from Santa Cruz Biotechnology, ERBB2 rabbit monoclonal (1:1000) and phospho-Akt (Ser473) (1:1000) antibodies from Cell Signaling Technology. Membranes were then incubated with an HRP-linked anti-rabbit antibody (GE Healthcare) at 1:10,000 dilution or with an anti-goat antibody (DAKO) at 1:2,000 dilution at room temperature for 1 hour. Antigen-antibody complexes were detected using an ECL-plus Western blotting detection system (GE Healthcare). Each study was performed at least in triplicate. […]

HEM-LP melanocytes = test: Proliferation of cultured melanocytes, total cell numbers counted; details: NRG-1 50 ng/ml, as early as day 1 until confluent, vs control
Description: as §1
(§2) Human neonatal epidermal melanocytes, lightly and darkly pigmented (HEM-LP and HEM-DP, respectively) were obtained from Cascade Biologics (Portland, Oreg.) and were cultured in melanocyte growth medium (MGM) consisting of Medium 254 and human melanocyte growth supplement (both from Cascade Biologics) at 37° C. under 5% CO2. Melanocytes from the third to ninth passage were used in these studies. […]

HEM-DP melanocytes = test: as above; details: NRG-1 50 ng/ml, as early as day 1 until confluent, vs control
Description: as §1, §2

B1: NRG-1: commercially available recombinant human neuregulin-1 (rhNRG-1-β1, R&D Systems), SEQ ID NO: 11 (protein)
chain: TSHLVKCAEKEKTFCVNGGECFMVKDLSNPSRYLCKCPNEFTGDRCQNYVMASFYKHLGIEFMEAEELYQK
- Levels of ERBB4 expression (ERBB4): did not change
- Levels of p-Akt (phospho-Akt (Ser473); HEM-DP, day 1, low confluency, vs control): equally high
- Levels of p-Akt, time course (phospho-Akt (Ser473); HEM-DP, day 3 through day 5, control decreased by day 3): maintained higher levels of p-Akt through day 5
- Levels of p-Akt (phospho-Akt (Ser473); HEM-DP, day 5, vs control): significantly higher
- Levels of p-Akt (phospho-Akt (Ser473); HEM-LP, day 5, vs control): significantly higher
- Cell numbers (HEM-LP melanocytes): significantly higher
- Cell numbers (HEM-DP melanocytes): significantly higher
